B1: mAb 159 (antibody, V domains shown)
VH: EVQLVESGGGVVQPGRSLRLSCAASGFTFSSYGMHWVRQAPGKGLEWVALISYDGGNRYYADSVKGRFTISRDNSKNTLYLQMNRLRAEDTAMYYCAKDRDDGWDWYYFMDVWGKGTTVTVSS
VL: DIQLTQSPGTLSLSPGERATLSCRASQSISGNYLAWYQHKPGQAPRLLIYGASTRATGIPDRFSGSGSGTDFTLTISRLEPEDFAVYYCQQYGSSYTFGQGTKVEIK
B2: mAb 316, de-glycosylated (antibody, V domains shown)
VH: not shown
VL: QAVLTQPPSASGSPGQSVTISCTGTSSDVGGYNYVSWYQQHPGKAPKLMIYEVSKRPSGVPDRFSGSKSGNTASLTVSGLQAEDEADYYCSSYAGSNHWVFGGGTKLTVL
B3: mAb 316 (antibody, V domains shown)
VH: not shown
VL: B2 VL

Experiments:
[1] = target: SARS-CoV-2 spike on intact virus (SARS-CoV-2/human/AUS/VIC01/2020) (SARS-CoV-2, isolate …, strain); assay: cell-based or functional assay
[2] = target: His-tagged SARS-CoV-2 RBD (SARS-CoV-2 Wuhan-Hu-1 (MN908947), UniProt P0DTC2); assay: BLI; Octet RED 96e; anti-RBD IgGs immobilised on AR2G biosensors, RBD as the analyte in serial dilutions; 1:1 global fitting model; conditions: both partners purified

Binder	FRNT, neutralisation of authentic SARS-CoV-2 on Vero cells, IC50 [1] [ng/mL]	Kd [2] [nM]
B1	5	
B2		1
B3		2
